Target: SARS-CoV-2 스파이크 D19 (VSV 슈도바이러스) (SARS-CoV-2) (UniProt P0DTC2)
Test: cell-based or functional assay

In the case of S2E12-LS (antibody), the EC50 (neutralisation, interpolated) is reported as 1.4 ng/mL, the EC90 (neutralisation, interpolated) is reported as 11.9 ng/mL and the IC50 (neutralisation) is reported as 1.4 ng/mL.
